For the series, the system named is C=C(OP(=O)(O)O)C(=O)O. Description: purified protein, by the assay type. The note with it: ADP 0.8 mM, pH 7.5.

The Km is the concentration of substrate that gives half-maximal velocity.

Sequence of PKM2 N70D (Homo sapiens; N70D) (chain, as listed by the source N70D N70D): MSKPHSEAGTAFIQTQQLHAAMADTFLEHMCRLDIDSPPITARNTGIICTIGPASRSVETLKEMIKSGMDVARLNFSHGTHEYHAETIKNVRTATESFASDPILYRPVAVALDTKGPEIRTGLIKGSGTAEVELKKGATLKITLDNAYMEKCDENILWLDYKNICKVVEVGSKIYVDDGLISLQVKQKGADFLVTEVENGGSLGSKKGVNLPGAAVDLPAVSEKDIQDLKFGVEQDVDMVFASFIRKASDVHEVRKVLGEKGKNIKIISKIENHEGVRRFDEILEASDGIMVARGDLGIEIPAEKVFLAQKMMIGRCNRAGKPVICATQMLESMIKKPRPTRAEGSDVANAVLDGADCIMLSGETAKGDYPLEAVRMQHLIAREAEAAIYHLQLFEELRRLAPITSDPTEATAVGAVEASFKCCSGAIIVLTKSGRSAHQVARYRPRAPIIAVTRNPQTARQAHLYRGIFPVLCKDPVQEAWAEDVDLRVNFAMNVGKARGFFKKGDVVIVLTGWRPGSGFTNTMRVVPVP
Sequence of PKM2 R106A (Homo sapiens; R106A) (chain, as listed by the source R106A R106A): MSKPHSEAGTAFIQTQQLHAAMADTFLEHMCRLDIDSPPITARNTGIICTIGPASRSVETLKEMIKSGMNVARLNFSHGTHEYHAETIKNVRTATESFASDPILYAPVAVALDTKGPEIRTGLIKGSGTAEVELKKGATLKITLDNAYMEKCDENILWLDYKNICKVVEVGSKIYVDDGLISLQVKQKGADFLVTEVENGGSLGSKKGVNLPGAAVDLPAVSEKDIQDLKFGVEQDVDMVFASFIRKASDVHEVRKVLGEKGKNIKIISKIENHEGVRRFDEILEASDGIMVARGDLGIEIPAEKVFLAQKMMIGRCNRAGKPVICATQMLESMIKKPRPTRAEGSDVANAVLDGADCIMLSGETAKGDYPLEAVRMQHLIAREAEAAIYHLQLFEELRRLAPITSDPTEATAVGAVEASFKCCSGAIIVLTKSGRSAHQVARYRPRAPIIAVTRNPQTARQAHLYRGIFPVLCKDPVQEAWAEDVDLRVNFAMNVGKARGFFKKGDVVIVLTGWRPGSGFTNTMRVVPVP
Sequence of PKM2 N75L (Homo sapiens; N75L) (chain, as listed by the source N75L N75L): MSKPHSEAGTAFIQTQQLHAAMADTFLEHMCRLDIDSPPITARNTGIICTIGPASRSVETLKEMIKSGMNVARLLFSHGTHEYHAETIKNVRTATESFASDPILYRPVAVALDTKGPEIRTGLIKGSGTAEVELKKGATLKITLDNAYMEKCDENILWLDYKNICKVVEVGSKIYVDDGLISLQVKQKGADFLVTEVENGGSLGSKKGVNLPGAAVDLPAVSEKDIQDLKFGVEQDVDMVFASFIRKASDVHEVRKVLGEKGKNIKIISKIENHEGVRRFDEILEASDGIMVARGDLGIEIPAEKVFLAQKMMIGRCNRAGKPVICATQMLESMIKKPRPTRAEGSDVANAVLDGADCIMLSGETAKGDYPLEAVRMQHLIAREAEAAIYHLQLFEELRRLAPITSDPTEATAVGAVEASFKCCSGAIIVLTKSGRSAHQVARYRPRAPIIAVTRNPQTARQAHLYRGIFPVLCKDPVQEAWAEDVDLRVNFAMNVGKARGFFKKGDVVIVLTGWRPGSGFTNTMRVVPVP

With PKM2 N70D (Homo sapiens; N70D), where the note is “other: 65 nM PKM2 N70D, no AA”, the Km was 780 ± 160 µM and the kcat/Km is recorded as 5.9±1.3 ×10^3 mM^-1 min^-1.

PKM2 N75L (Homo sapiens; N75L): for the setting “other: 4200 nM PKM2 N75L, no AA”, the Km is 80 µM.

For PKM2 R106A (Homo sapiens; R106A), under “other: 50 nM PKM2 R106A, no AA”, the Km was determined as 510 ± 40 µM and the kcat/Km was 9.6±0.8 ×10^3 mM^-1 min^-1.

For wtPKM2 (Homo sapiens), where the note is “other: 10 nM wtPKM2, no AA”, the Km came to 700 µM.

The values above are taken from publication PMC10004559, “Identification of residues involved in allosteric signal transmission from amino acid binding site of pyruvate kinase muscle isoform 2” (PLOS ONE, 2023).
